In patent US20110158985A1 (published 2011):
Positions count from the first letter of the chain named. Where “and” joins values, the source holds several entries; their conditions need not be identical. Equal values may be shown once.

B1: palivizumab Fab (papain cleavage of palivizumab IgG) (Fab, V domains shown)
VH: QVTLRESGPALVKPTQTLTLTCTFSGFSLSTSGMSVGWIRQPPGKALEWLADIWWDDKKDYNPSLKSRLTISKDTSKNQVVLKVTNMDPADTATYYCARSMITNWYFDVWGAGTTVTVSS
VL: DIQMTQSPSTLSASVGDRVTITCKCQLSVGYMHWYQQKPGKAPKLLIYDTSKLASGVPSRFSGSGSGTEFTLTISSLQPDDFATYYCFQGSGYPFTFGGGTKLEIK
notes: also called Palivizumab^a
B2: A3e2 Fab (Fab, V domains shown)
VH: B1 VH with S32A, D56G, K59G, D60H, S67D, S100D, T103F, A112Q
VL: B1 VL with K24S, C25A, Q26S, L27S, S51F, K52Y, A54H, L103V
B3: A14a4 Fab (Fab, V domains shown)
VH: B1 VH with S32A, D60S, S67D, S100D, A112Q
VL: B1 VL with K24L, C25L, Q26S, L27S, S28R, S51Y, K52Y, L53Q, A54T, L103V
B4: A17b5 Fab (Fab, V domains shown)
VH: B1 VH with S32A, D60H, S67D, S100D, T103F, A112Q
VL: B1 VL with K24S, C25L, Q26S, L27S, S28R, S51Y, K52Y, A54P, L103V
B5: A17h4 Fab (Fab, V domains shown)
VH: B1 VH with S32A, D57G, D60H, S67D, S100D, T103F, A112Q
VL: B1 VL with K24S, C25P, Q26S, L27S, S51Y, K52Y, L103V
B6: A4b4 Fab (Fab, V domains shown)
VH: B1 VH with S32A, D60H, S67D, S100D, T103F, W105F, A112Q
VL: B1 VL with K24S, C25A, Q26S, L27S, S28R, S51F, K52F, A54D, L103V
B7: A8c7 Fab (Fab, V domains shown)
VH: B1 VH with S32A, D60S, S67D, S100D, T103F, A112Q
VL: B1 VL with K24S, C25P, Q26S, L27S, S28R, S51R, K52Y, L53Q, A54S, L103V
B8: A16b4 Fab (Fab, V domains shown)
VH: B1 VH with S32A, D60H, S67D, S100D, T103F, A112Q
VL: B1 VL with K24L, C25L, Q26S, L27S, S28R, S51M, K52Y, L53Q, L103V
B9: 6H8 Fab (Fab, V domains shown)
VH: B1 VH with S32A, S100D, W105F, A112Q
VL: B1 VL with K24S, C25A, Q26S, L27S, S51F, A54T, L103V
B10: P12f4 Fab (Fab, V domains shown)
VH: B1 VH with S32P, D57G, D60H, S67D, S100D, T103F, W105F, A112Q
VL: B1 VL with K24S, C25L, Q26S, L27S, S28R, S51R, K52G, A54P, L103V
B11: M3H9 Fab (Fab, V domains shown)
VH: B1 VH with S32A, S100D, T103F, A112Q
VL: B1 VL with K24S, C25A, Q26S, L27S, S51Y, L53Q, A54T, L103V
B12: H3-3F4 Fab (Fab, V domains shown)
VH: B1 VH with S32A, S100D, T103F, A112Q
VL: B1 VL with K24S, C25A, Q26S, L27S, S51F, L103V
B13: L1-7E5 Fab (Fab, V domains shown)
VH: B1 VH with S32A, S100D, W105F, A112Q
VL: B1 VL with K24S, C25A, Q26S, L27S, S28R, S51F, L103V
B14: Y10H6 Fab (Fab, V domains shown)
VH: B1 VH with S32A, S100D, T103F, A112Q
VL: B1 VL with K24S, C25A, Q26S, L27S, S51R, K52Y, A54S, L103V
B15: DG (aka D95/G93) Fab (Fab, V domains shown)
VH: B1 VH with S32A, S100D, W105F, A112Q
VL: B1 VL with K24S, C25A, Q26S, L27S, S51F, L103V

Molecular target: T1, recombinant C-terminally truncated RSV (A2 strain) F protein (RSV (A2 strain), UniProt P03420 26-524)
T1 construct: extracellular domain; also called truncated F protein; extracellular domain of the F protein from RSV A2
Assay: SPR (BIAcore), Fab over immobilised F

Binder	Kd [nM]
B1	6.07

Molecular target: T1, recombinant C-terminally truncated RSV …
Assay: SPR (BIAcore), Fab over immobilised F
Remark: another data set of the same source

Binder	Kd [nM]	koff [s⁻¹]	kon [M⁻¹ s⁻¹]
B2	0.157	9.4e-05	599000
B3	0.723	0.00024	332000
B4	0.124	7.3e-05	590000
B5	0.202	0.000105	519000
B6	0.086	5.2e-05	604000
B7	0.464	0.0003	647000
B8	0.214	0.000105	490000

Molecular target: T2, F protein of RSV (Long strain) (RSV (Long strain), UniProt P12568 26-574)
Assay: cell-based or functional assay

Binder	Microneutralization IC50, Fab
B3	> 0.4 µg/ml and > 8 nM
B4	0.406 µg/ml and 0.92 nM
B6	0.414 µg/ml and 0.83 nM
B7	0.177 µg/ml and 3.54 nM

Molecular target: RSV F protein (purified) (respiratory syncytial virus)
Assay: SPR (BIAcore), F protein immobilised

Binder	koff	kon
B9	0.000178 s⁻¹ and 0.000473 s⁻¹	314000 M⁻¹ s⁻¹ and 444000 M⁻¹ s⁻¹
B10	0.000299 s⁻¹	527000 M⁻¹ s⁻¹
B11	0.000338 s⁻¹	605000 M⁻¹ s⁻¹
B12	0.000445 s⁻¹ and 0.000402 s⁻¹	–
B13	0.000192 s⁻¹ and 0.000331 s⁻¹ and 0.000229 s⁻¹	–
B14	0.000462 s⁻¹	757000 M⁻¹ s⁻¹
B15	0.000167 s⁻¹ and 0.000444 s⁻¹	–

Molecular target: T2, F protein of RSV (Long strain)
Assay: cell-based or functional assay
Remark: another data set of the same source

Binder	Mean IC50 (Control) [µg/mL]	Mean IC50 (Curve) [µg/mL]
B6	0.0411	0.0414
B7	0.157	0.177
